Results taken from the supplement of paper PMC12067230.
± gives the uncertainty stated by the source.

B1: H-33-Y; numbered along this chain (parent)
chain: EASNCFAIRHFENKFAVETLICFNLFLNSQEKHY

Variants of: B1
Test: amyloid nucleation score relative to WT ADan (yeast Sup35 reporter selection) (log enrichment difference); higher = more amyloid nucleation
Summary of the method: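 Three biological replicates of a psi-minus, pin-minus S. cerevisiae strain carried a library of peptide variants, each with a single amino-acid substitution or a stop truncation and fused to the Sup35 nucleation domain. Cells were induced for 24 h in SC-URA containing 2% glucose and 100 μM copper sulfate, then selected on plates lacking adenine for 7 d at 30 °C. Input and output plasmids were sequenced on Illumina, and any variant with fewer than 200 input reads was discarded. The nucleation score is each variant's log output/input enrichment minus that of the unmutated peptide, combined across replicates in DiMSum as an error-weighted mean.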

Variant	amyloid nucleation score
H33Y	-0.228 ± 0.17
H33W	-0.788 ± 0.17
Y34T	-0.062 ± 0.14
Y34P	-0.211 ± 0.18
Y34F	-0.228 ± 0.14
Y34R	0.398 ± 0.088
Y34Q	0.196 ± 0.2
Y34C	0.316 ± 0.14
Y34V	0.031 ± 0.11
Y34D	0.321 ± 0.13
Y34N	-0.386 ± 0.18
Y34G	0.194 ± 0.098
Y34M	0.0777 ± 0.15
Y34W	-0.636 ± 0.14
Y34S	0.193 ± 0.1
Y34L	-0.0163 ± 0.1
Y34E	0.297 ± 0.14
Y34A	-0.0498 ± 0.12
Y34I	-0.222 ± 0.16
Y34H	0.0246 ± 0.18
Y34K	0.234 ± 0.17
